Experimental data reported in US12599665B2, “Gene fusions for control of genetically modified cells” (A2 Biotherapeutics, Inc., priority 2020, dated 2026).

B1: C150: truncated BID (tBID), a potent apoptosis inducer; construct A tBID lacking a LBD (protein, UniProt P55957 61-195, looked up)
BH3-interacting domain death …: GNRSSHSRLGRIEADSESQEDIIRNIARHLAQVGDSMDRSIPPGLVNGLALQLRNTSRSEEDRNRDLATALEQLLQAYPRDMEKEKTMLVLALLLAKKVASHTPSLLRDVFHTTVNFINQNLRTYVRSLARNGMD
modifications: BH3-interacting domain death agonist p15
B2: D-ESR1: fusion protein SEQ ID NO: 5; tBID helices α3, α6 and α7 fused to the N-terminus of ESR1 LBD (protein)
chain: SQEDIIRNIARHLAQVGDSMDRSIPPGEKTMLVLALLLAKKVASHTPSLLRDVFHTTVNFINQNLGSKKNSLALSLTADQMVSALLDAEPPILYSEYDPTRPFSEASMMGLLTNLADRELVHMINWAKRVPGFVDLTLHDQVHLLECAWLEILMIGLVWRSMEHPGKLLFAPNLLLDRNQGKCVEGMVEIFDMLLATSSRFRMMNLQGEEFVCLKSIILLNSGVYTFLSSTLKSLEEKDHIHRVLDKITDTLIHLMAKAGLTLQQQHQRLAQLLLILSHIRHMSNKGMEHLYSMKCKNVVPLYDLLLEMLDAHRLHAPT
modifications: tBID fusion protein C3454 (D-ESR1)
notes: tBID helices α3, α6 and α7 fused to the N-terminus of ESR1 LBD
B3: C-ESR1: fusion protein SEQ ID NO: 7; tBID helices α3, α4, α5 and α6 fused to the N-terminus of ESR1 LBD (protein)
chain: MSQEDIIRNIARHLAQVGDSMDRSIPPGLVNGLALQLRNTSRSEEDRNRDLATALEQLLQAYPRDMEKEKTMLVLALLLAKKVASHTPGSKKNSLALSLTADQMVSALLDAEPPILYSEYDPTRPFSEASMMGLLTNLADRELVHMINWAKRVPGFVDLTLHDQVHLLECAWLEILMIGLVWRSMEHPGKLLFAPNLLLDRNQGKCVEGMVEIFDMLLATSSRFRMMNLQGEEFVCLKSIILLNSGVYTFLSSTLKSLEEKDHIHRVLDKITDTLIHLMAKAGLTLQQQHQRLAQLLLILSHIRHMSNKGMEHLYSMKCKNVVPLYDLLLEMLDAHRLHAPT
modifications: tBID fusion protein C3452 (C-ESR1)
notes: tBID helices α3, α4, α5 and α6 fused to the N-terminus of ESR1 LBD
B4: ESR1-D: fusion protein SEQ ID NO: 4; ESR1 LBD fused to N-terminus of tBID with Bid α3, α6 and α7 helices (protein)
chain: MKKNSLALSLTADQMVSALLDAEPPILYSEYDPTRPFSEASMMGLLTNLADRELVHMINWAKRVPGFVDLTLHDQVHLLECAWLEILMIGLVWRSMEHPGKLLFAPNLLLDRNQGKCVEGMVEIFDMLLATSSRFRMMNLQGEEFVCLKSIILLNSGVYTFLSSTLKSLEEKDHIHRVLDKITDTLIHLMAKAGLTLQQQHQRLAQLLLILSHIRHMSNKGMEHLYSMKCKNVVPLYDLLLEMLDAHRLHAPTGSSQEDIIRNIARHLAQVGDSMDRSIPPGEKTMLVLALLLAKKVASHTPSLLRDVFHTTVNFINQNL
modifications: tBID fusion protein C3445 (ESR1-D)
notes: ESR1 LBD fused to N-terminus of tBID with Bid α3, α6 and α7 helices
B5: ESR1-C: fusion protein SEQ ID NO: 6; ESR1 LBD fused to N-terminus of tBID truncation C (protein)
chain: MKKNSLALSLTADQMVSALLDAEPPILYSEYDPTRPFSEASMMGLLTNLADRELVHMINWAKRVPGFVDLTLHDQVHLLECAWLEILMIGLVWRSMEHPGKLLFAPNLLLDRNQGKCVEGMVEIFDMLLATSSRFRMMNLQGEEFVCLKSIILLNSGVYTFLSSTLKSLEEKDHIHRVLDKITDTLIHLMAKAGLTLQQQHQRLAQLLLILSHIRHMSNKGMEHLYSMKCKNVVPLYDLLLEMLDAHRLHAPTGSSQEDIIRNIARHLAQVGDSMDRSIPPGLVNGLALQLRNTSRSEEDRNRDLATALEQLLQAYPRDMEKEKTMLVLALLLAKKVASHTP
modifications: tBID fusion protein C3443 (ESR1-C)
B6: full length Bid: full length Bid expressed alone in HEK293T cells (protein, UniProt P55957 1-195, looked up)
chain: MDCEVNNGSSLRDECITNLLVFGFLQSCSDNSFRRELDALGHELPVLAPQWEGYDELQTDGNRSSHSRLGRIEADSESQEDIIRNIARHLAQVGDSMDRSIPPGLVNGLALQLRNTSRSEEDRNRDLATALEQLLQAYPRDMEKEKTMLVLALLLAKKVASHTPSLLRDVFHTTVNFINQNLRTYVRSLARNGMD
modifications: full-length
notes: full length Bid expressed alone in HEK293T cells

Tests used:
HEK293T cells = test: Annexin V apoptosis assay in transfected HEK293T cells +/- 4OHT; type: cell-based, Human; conditions: for cell death observed: 1 uM 4OHT or solvent control; for inducibility of apoptosis with 4OHT: 200 nM or 1 uM 4OHT, ~18-24 hours
Method: Human Embryonic Kidney (HEK) 293T cells were transfected with 1 ug per 1E6 cells using Lipofectamine 3000 and incubated in DMEM+10% FBS+1% Pen/Strep media for 4 hours before adding 1 uM 4-hydroxytamoxifen (+4OHT) or solvent control (No 4OHT). The cells were incubated with 4OHT for 18-24 hours. The cells were then stained with Annexin V to detect apoptotic cells, as well as DAPI to detect dead cells.
HEK293T cells were transfected with varying amounts of DNA of a vector control (pLenti), with construct A tBID (lacking a LBD, C150, see FIG. 5B), or with C-ESR1 or D-ESR1 (FIG. 10, bottom), and assayed for apoptosis using either 200 nM OHT or 1 μM 4OHT.
To determine the effect of amount of DNA as well as 4OHT concentration on apoptosis induction, we titrated both the amount of DNA (2, 3, or 6 ug DNA per 1E6 cells) and the concentration of 4OHT. 500,000 cells HEK293T cells were plated in a 24-well plate. ˜2 hours after plating, appropriate amounts of DNA were transfected using Lipofectamine 3000 and incubated for 4 hours. Either ethanol solvent control, 200 nM 4OHT, or 1 uM 4OHT was added to the transfected cells then incubated for ˜18-24 hours. The cells were then stained as in Example 4. Intriguingly, C-ESR1 was not inducible in HEK293 Ts, unlike in Jurkat cells (Example 6, FIGS. 7 and 11A-B).

Jurkat cells = test: Annexin V / PI apoptosis assay in transfected Jurkat cells +/- 4OHT; type: cell-based; conditions: for inducible apoptosis with 4OHT / background apoptosis / killing: 1 ug DNA per 1E6 cells; for inducible apoptosis with 4OHT: 1 uM 4OHT vs solvent control, 18-24 hrs; for background apoptosis / killing: solvent control; for induction of apoptosis with 4OHT / background cell death: 2 ug DNA per 1E6 cells, 20 hours; for induction of apoptosis with 4OHT: 200 nM or 1 uM 4OHT; for background cell death: ethanol solvent control
Method: Jurkat immortalized T lymphocytes were transfected with 1 ug per 1E6 cells using Neon electroporation and incubated in RPMI+20% FBS+0.1% Pen/Strep media for 4 hours before adding 1 uM 4-hydroxytamoxifen (+4OHT) or solvent control (No 4OHT). The cells were incubated with 4OHT for 18-24 hours. The cells were then stained with Annexin V to detect apoptotic cells, as well as propidium iodide (PI) to detect dead cells.
Jurkat cells were transfected with 1 ug of DNA per 1E6 cells using Neon electroporation, treated +/−4OHT for 18-24 hrs, and stained with Annexin V to detect apoptotic cells, as well as PI to detect dead cells (FIG. 5A).
One possibility is that the BID α3 and α6 helices are necessary and sufficient for tBID function. Therefore, we made various truncations that included α3 and α6, as well as various other helices. Jurkat cells were transfected with 1 ug DNA per 1E6 cells, treated with 4OHT or solvent control, then stained as in Example 4. […] One exception was the ESR-D tBID fusion construct, which has the Bid α3, α6 and α7 helices (FIG. 6). 0.3 uM staurosporine (STP) and DMSO solvent control were included as controls.
Jurkat cells were transfected with 1 ug DNA per 1E6 cells, treated with 4OHT or solvent control, then stained as in Example 4. The fold change in apoptosis upon 4OHT addition was determined by dividing the percent Annexin V positive cells treated with 4OHT by the percent Annexin V positive cells treated with a solvent control (FIG. 8). The fold change was calculated from one experiment. As electroporation of empty vector always results in some background death of cells, percent Annexin V positive cells of pLenti was used as the background and subtracted from total percentage to obtain “background subtracted” fold change values.
To determine the effect of 4OHT concentration on apoptosis induction in Jurkat cells, Jurkat cells were transfected with 2 ug DNA per 1E6 cells. 4 hours post-transfection, either ethanol solvent control, 200 nM 4OHT, or 1 uM 4OHT was added to the transfected cells then incubated for 20 hours. The cells were then stained with Annexin V and PI to measure cell death.

primary T cells [1] = test: Caspase-3/7 Green time course of 4OHT-mediated death in transduced primary T cells; type: cell-based
Method: To characterize tamoxifen-induced killing activity in transfected Jurkat cells over time, Jurkat cells were transfected with 1 ug DNA per 1 E6 cells as described previously above. 24 hours post-transfection, Jurkat cells were harvested and resuspended in complete RPMI media containing 10% FBS, 1% Pen/Strep, and 5 uM Caspase-3/7 Green Reagent (Essen Bioscience 4440). The resuspended cells were plated onto poly-L-ornithine treated 384-well plates and left at room temperature for 30 minutes. Then, RPMI+10% FBS+1% Pen/Strep+5 uM Caspase-3/7 Green Reagent containing appropriate 2×4OHT or EtOH was added to the cells. Induction of apoptosis was measured using the Caspase-3/7 dye, which couples caspase-3/7 recognition motif with a DNA intercalating dye. Cells turn green if and only if caspase-3/7-mediated apoptosis occurs. The cells were imaged using the IncuCyte S3 Live-Cell Analysis System.
Primary T cells transduced with D-ESR1 were prepared similarly to Jurkat cells in Example 9 and 4OHT-mediated death was measured using the Caspase-3/7 Green Reagent as described in Example 9.

primary T cells [2] = test: Annexin V / PI apoptosis assay in transduced primary T cells +/- 4OHT; type: cell-based; conditions: lentiviral transduction, 20 hours
Method: To characterize tBID-ESR1 safety switch function in primary T cells, D504C cells were transduced with lentiviral constructs containing either C-ESR1 or D-ESR1. The cells were maintained and expanded in media containing 300 IU/mL IL-2. To induce apoptosis, 1E6 cells were resuspended in 1 mL of LymphoONE media containing 1% human serum and 1 uM 4OHT. As a solvent control, same volume of ethanol was added to the cells. 20 hours after 4OHT addition, cells were stained with Annexin V and PI to measure cell death as described in Example 9.

[3] = HEK293T, 1 ug per 1E6 cells, 18-24 hours
[4] = HEK293T, 2, 3, or 6 ug DNA per 1E6 cells

Molecule	cell death observed (HEK293T cells; [3])	inducible apoptosis with 4OHT (Jurkat cells)	background apoptosis / killing (Jurkat cells)	induction of apoptosis with 4OHT (Jurkat cells)	inducibility of apoptosis with 4OHT (HEK293T cells; [4])	background cell death (Jurkat cells)	further results
B1	significant death						Annexin V+ cells (HEK293T cells; HEK293T, 1 ug per 1E6 cells, regardless of the presence of tamoxifen, 18-24 hours): 60-70%
B2		showed inducible apoptosis	low background apoptosis	consistently induced apoptosis	increases the window of induction		background apoptosis, Caspase-3/7 Green Reagent (primary T cells [1]): low background; inducible apoptosis, Caspase-3/7 Green Reagent (primary T cells [1]; 4OHT): inducible apoptosis is seen; inducibility of apoptosis with 4OHT (HEK293T cells; HEK293T, 2, 3, or 6 ug DNA per 1E6 cells, listed as C3454): retained activity across cell types; background apoptosis (HEK293T cells; HEK293T, 2, 3, or 6 ug DNA per 1E6 cells, ethanol solvent control): does not increase background; inducible killing with 4OHT, Annexin V and PI (primary T cells [2]; 1 uM 4OHT): greatest inducible killing; background cell death, Annexin V and PI (primary T cells [2]; ethanol solvent control): low background
B3		showed inducible apoptosis			not inducible		
B4		high inducibility	low background killing	robustly induced at either 200 nM or 1 uM 4OHT		relatively high background levels of cell death	
B5						relatively high background levels of cell death	
B6	negligible death						
